Laboratory results taken from patent publication US20130035289A1 (UNIVERSITE DE LIEGE, published 2013).

B1: Recombinant 14K N-terminal human growth hormone (14K hGH) (other)
chain: MFPTIPLSRLFDNAMLRAHRLHQLAFDTYQEFEEAYIPKEQKYSFLQNPQTSLSFSESIPTPSNREETQQKSNLELLRISLLLIQSWLEPVQFLRSVFANSLVYGASDSNVYDLLKDLEEGIQTLMGRLEDGSP
notes: Produced in E. coli as in WO 98/51323; it is tied to the 14-16 kD fragments in general, not to the tested batch; also called 14K GH; r14K GH
B2: Recombinant 16K N-terminal human prolactin (16K hPRL) (other, UniProt P01236 29-167, looked up)
chain: LPICPGGAARCQVTLRDLFDRAVVLSHYIHNLSSEMFSEFDKRYTHGRGFITKAINSCHTSSLATPEDKEQAQQMNQKDFLSLIVSILRSWNEPLYHLVTEVRGMQEAPEAILSKAVEIEEQTKRLLEGMELIVSQVHP
notes: domain: 16K N-terminal fragment; also called 16K PRL; 16K prolactin

What was measured:
[1] = biological target: T1, Recombinant wild type human Plasminogen Activator Inhibitor type 1 (PAI-1) (human, UniProt P05121 24-402); assay: SPR (BIAcore 1000), PAI-1 immobilized on CM5 chip, 25 C
T1 construct: In the yeast two-hybrid confirmation full-length human PAI-1 was cloned in pGADT7 (GAL4 prey fusion); also called recombinant wt PAI-1; rPAI-1

[2] = biological target: T2, urokinase-type plasminogen activator (uPA) (UniProt P00749 21-431, limits assumed); assay: immunoprecipitation with uPA without PAI-1, Western blot for 14K GH
[3] = biological target: T1, Recombinant wild type human Plasminogen …; assay: SPR (BIAcore 1000), 16K hPRL immobilized on CM5 chip, 25 C
[4] = biological target: T2, urokinase-type plasminogen activator …; assay: immunoprecipitation with uPA without PAI-1, Western blot for 16K PRL
PAI-1/uPA complex = biological target: T3, PAI-1/uPA complex (human, UniProt P05121 24-402; P00749 21-431, limits assumed); assay: SPR (BIAcore 1000), 16K hPRL immobilized on CM5 chip, PAI-1 pre-incubated with uPA, 25 C
T3 construct: For SPR formed by incubating PAI-1 (2 uM) and uPA (1.4 uM) for 10 min at 37 C before loading; also called uPA/PAI-1; uPA-PAI-1 complex

Binder	Kd [1]	binding result [2]	Kd [3]	binding result [4]	Kd (PAI-1/uPA complex)
B1	1000 nM	no binding			
B2	600 nM		580 nM	no binding	150 nM
